Reference: article PMC2580030
Values joined by “and” are separate entries in the source; they are usually repeats but may differ in a detail not shown here. Identical values can stand only once.

What was measured:
[1] = target: recombinant soluble empty (peptide free) HLA-DR1 (human); test: fluorescence polarisation
[2] = target: recombinant soluble empty (peptide free) HLA-DR1 (human); test: native gel or EMSA

Substance | loss of bound peptide during the first 24 hr [1] | t1/2 [2]
FAM labeled P7 L→C HA peptide | 18% and 3% | 
HA 306-318 P2,3 VK→SD peptide, fluorescein-labeled |  | 4.6 min
HA 306-318 P2,7 VL→SP peptide, fluorescein-labeled |  | 40.4 min
HA 306-318 P2,7,10 VLA→SPG peptide, fluorescein-labeled |  | 9.9 min
HA 306-318 P2,10 VA→SG peptide, fluorescein-labeled |  | 11.7 min
HA 306-318 P3 K→D peptide, fluorescein-labeled |  | 43.8 min
HA 306-318 P3,7 KL→DP peptide, fluorescein-labeled |  | 15.9 min
HA 306-318 P3,10 KA→DG peptide, fluorescein-labeled |  | 7.92 min
HA 306-318 P7 L→P peptide, fluorescein-labeled |  | 268 min
HA 306-318 P7,10 LA→PG peptide, fluorescein-labeled |  | 92.9 min
HA 306-318 P10 A→G peptide, fluorescein-labeled |  | 69 min
